Test results published in patent US20250154287A1.

Biological target: CD19 on B cells and plasma cells in PBMCs (human) (UniProt P15391)
Test: cell-based or functional assay

Sequence of CD19 on B cells and plasma cells in PBMCs (human) (P15391 20-556): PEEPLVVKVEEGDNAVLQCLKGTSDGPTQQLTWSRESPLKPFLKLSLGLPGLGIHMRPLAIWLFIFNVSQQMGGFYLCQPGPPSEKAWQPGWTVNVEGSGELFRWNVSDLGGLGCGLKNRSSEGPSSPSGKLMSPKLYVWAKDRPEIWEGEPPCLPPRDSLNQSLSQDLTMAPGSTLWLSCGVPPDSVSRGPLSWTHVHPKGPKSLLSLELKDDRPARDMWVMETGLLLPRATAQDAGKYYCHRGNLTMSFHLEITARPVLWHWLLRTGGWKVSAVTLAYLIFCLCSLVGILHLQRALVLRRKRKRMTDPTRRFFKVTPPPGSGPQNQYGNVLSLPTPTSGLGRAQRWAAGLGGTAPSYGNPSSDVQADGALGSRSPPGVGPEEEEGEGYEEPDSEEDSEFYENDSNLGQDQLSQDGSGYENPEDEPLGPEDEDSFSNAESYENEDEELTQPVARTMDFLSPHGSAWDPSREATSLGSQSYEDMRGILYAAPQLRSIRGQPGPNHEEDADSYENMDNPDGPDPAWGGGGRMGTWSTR

CD19-CD3 scFv (InvivoGen, Cat number Bimab-cd19cd3-01)
EC50 (nM), cytotoxicity against IgA^+ CD20^+ B cells by flow cytometry: 0.00325 nM | EC50 (nM), reduction in secreted IgA in human PBMC supernatants: 0.0368 nM | Top (MFI) as printed, cytotoxicity against IgA^+ CD20^+ B cells by flow cytometry: 92.8 | reduction of secreted IgA in PBMC supernatants (IgA ELISA): 57%
